Assay results as given in US8093037B2, “Engineered microorganisms with enhanced fermentation activity” (Verdezyne, Inc., priority 2009, dated 2012).
Several values for one entry are separate records, joined by “and”; a condition that tells them apart may be missing. Equal entries are not always repeated.

Tests used:
[1] = target: xylose isomerase; test: Xylose isomerase assay in the presence of xylitol (inhibition constant); assay type: biochemical; details: chimeric variants table; inhibitor xylitol
Procedure: Approximately 20 μg of soluble whole cell extract from each transformed cell line, prepared using Y-PER plus reagent as described above, was incubated in a solution containing about 100 mM Tris, pH 7.5, 10 mM MgCl ? 2, 0.15 mM NADH (Sigma, St. Louis, Mo.), and 2 U Sorbitol Dehydrogenase (SDH) (Roche, Indianapolis, Ind.) at about 30° C. […] A Beckman DU-800 spectrophotometer was utilized with an Enzyme Mechanism software package (Beckman Coulter, Inc, Brea, Calif.), and the change in the A340 was monitored for 2-3 minutes.

[2] = Heterologous xylose isomerase expression in yeast (active yes/no); assay type: cell-based, Saccharomyces cerevisiae; details: xylose isomerase of donor organism expressed in engineered yeast (S. cerevisiae)
[3] = Xylose isomerase activity assay (sorbitol dehydrogenase/NADH coupled, Kuyper et al.), soluble whole cell extract; assay type: biochemical, Saccharomyces cerevisiae
[4] = system: Saccharomyces cerevisiae (strain BF903); test: Industrial yeast strain evaluation: ethanol production on xylose in sealed serum bottles; assay type: cell-based; details: strain BF903, YP plus xylose, sealed serum bottle
Procedure: The serum bottles were sealed with a butyl rubber stopper to prevent air exchange. As a result, the cultures became anaerobic once the available oxygen in the serum bottle was utilized. In general, anaerobiosis (e.g., the onset of anaerobic conditions) occurred a few hours after the culture was inoculated. Xylose utilization, ethanol production and cell growth were measured every twenty four hours.

[5] = system: C5 strain; test: Xylose fermentation of C5 strain transformed with xylose isomerase constructs; assay type: cell-based, Saccharomyces cerevisiae
Excerpt: The engineered strain was designed to include the following genetic modifications: the native Pho13 gene (alkaline phosphatase specific for p-nitrophenyl phosphate) was disrupted by inserting a construct containing the native TLK1 gene (Transketolase-1); the native aldose reductase gene (Gre3) was disrupted by inserting a construct containing the native high-affinity glucose transporter-7 gene (HXT7); the native glucose-repressible alcohol dehydrogenase II gene (adh2) was disrupted by inserting a construct containing the native xylulokinase gene (XYLK); and the native orotidine-5′ phosphate decarboxylase gene (ura3) was disrupted by inserting a construct containing the native transaldolase 1 gene (TAL1). The resulting strain had the following genotype: pho13::TKL1, gre3::HXT7, adh-2::XYLK, ura3::TAL1.
The C5 strain was transformed using standard protocols with either p426GPD (as a control) or the chimeric variants XI-R, XI-Rp5, XI-Rp10, or XI-Rp15. The transformed cells were grown on SC-glucose minus uracil initially and then passaged onto SC-xylose minus uracil. Cultures of each of the above constructs were made in SC-xylose minus uracil—and grown for one week. The cultures were grown aerobically at 30° C. with 250 rpm agitation, 1 vvm sparge of process air, 21% O2. The pH was controlled at about 5.0 with 1N NaOH. […] At 24 hours elapsed fermentation time the fermentation was switched to anaerobic conditions. […] Oxygen was purged with 100% N2 sparge at 1 vvm until percent O2 was below 1%. Aeration was then set at 0.25 vvm 100% N2.
The final sample also measured biomass by dry cell weight.

[6] = system: Saccharomyces cerevisiae (strain BF903); test: Industrial yeast strain evaluation: aerobic growth and xylose consumption in YP-xylose; assay type: cell-based; details: 30° C., 7 days
Procedure: A commercially available industrial diploid strain of Saccharomyces cerevisiae (strain BF903; “Stillspirits” triple distilled yeast, Brewcraft, Albany, New Zealand; available at Hydrobrew, Oceanside, Calif.) was obtained and was made competent for transformation using known yeast cell transformation procedures. […] Transformed yeast containing each construct were grown overnight aerobically in a 15 ml culture tube on YPD media containing 2% glucose. After about 24 hours, about 25 ml of YP media containing 2% glucose and 100 μg/ml G418 was seeded with the cells at an initial OD600 of 0.5 in a 250 ml Erlenmeyer flask and grown aerobically at 30° C. The cultures were then passaged once every 7 days into fresh media, also at an initial OD600 of 0.5.
Measurements were taken of the cell optical density (OD600) to assess cell density and plated onto YPD with 100 μg/ml G418 to ensure that the plasmid was stable. […] The strains were then grown overnight in YPD (with 100 μg/ml G418) and used to inoculate about 50 ml YP-xylose (with 100 μg/ml G418) into disposable 250 ml Erlenmeyer flasks with vented caps at an initial OD600 of about 1. The cultures were allowed to grow aerobically at 30° C. at 200 rpm for 7 days.

Molecule | Ki [1] [mM] | Active? (yes/no) [2] | Specific Activity ([3]; chimeric variants table, xylose 40-500 mM, soluble whole cell extract) [µmol/min/mg] | cell growth (cell density) [4] | ethanol production [4] | Dry Cell Wt ([5]; final sample at 372 hours) | Ethanol ([5]; final sample at 372 hours) | Glucose ([5]; final sample at 372 hours) [g/L] | Xylose ([5]; final sample at 372 hours) | OD600 nm ([5]; final sample at 372 hours after commencing fermentation) | Specific Activity ([3]; xylose isomerase expressed in S. cerevisiae, total soluble crude extract, xylose concentrations between 40 and 500 nM (so in the source), Michaelis-Menten plot) [µmol/min/mg] | xylose consumption [6]
XI-P: xylose isomerase from Piromyces strain E2, SEQ ID NO: 35 | 4.79 | Yes | 2.02 |  |  |  |  |  |  |  |  | 
XI-R: native xylose isomerase of Ruminococcus flavefaciens strain 17, SEQ ID NO: 31 (protein, listed as Ruminococcus flavefaciens) MEFFSNIGKIQYQGPKSTDPLSFKYYNPEEVINGKTMREHLKFALSWWHTMGGDGTDMFGCGTTDKTWGQSDPAARAKAKVDAAFEIMDKLSIDYYCFHDRDLSPEYGSLKATNDQLDIVTDYIKEKQGDKFKCLWGTAKCFDHPRFMHGAGTSPSADVFAFSAAQIKKALESTVKLGGNGYVFWGGREGYETLLNTNMGLELDNMARLMKMAVEYGRSIGFKGDFYIEPKPKEPTKHQYDFDTATVLGFLRKYGLDKDFKMNIEANHATLAQHTFQHELRVARDNGVFGSIDANQGDVLLGWDTDQFPTNIYDTTMCMYEVIKAGGFTNGGLNFDAKARRGSFTPEDIFYSYIAGMDAFALGFRAALKLIEDGRIDKFVADRYASWNTGIGADIIAGKADFASLEKYALEKGEVTASLSSGRQEMLESIVNNVLFSL |  | Yes |  | grew to a higher cell density | produced more ethanol | 2.20 g/L and 2.03 g/L | 15.65 g/L and 15.5 g/L | 0 | 3.14 g/L and 3.85 g/L | 7.72 and 7.32 | 0.9605 | more efficient at consuming xylose
